Experiment: yeast display, Sf9 membrane polyspecificity reagent, FACS + sequencing; frameworks hold sequencing errors
How it was run: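 Genes from sorted yeast were amplified by colony PCR, read by MiSeq 2 × 250 sequencing and filtered on CDR length. These cells carried a synthetic nanobody library in Saccharomyces cerevisiae BJ5465 and were sorted by FACS into low and high (top ~1%) gates on anti-HA and streptavidin fluorescence. Polyreactivity is labelled according to the gate of origin.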

| Sequence | polyreactivity (PSR sort gate) |
| --- | --- |
| QVQLVESGGGLVQAGGSLRLSCAASGSIFSTYAMGWYRQAPGKERELVAAISRSGGSTYYADSVKGRFTISRDNAKNTVFLQMNSLKPEDTAVYYCAKVGRRQRYDYWGQGTQVTVSS | high polyreactivity |
| QVQLVESGGGLVQAGGSLRLSCAASGIIFRYNTMGWYRQAPGKERELVAAITRSGGSTYYADSVKGRFTISRDNAKNTVYLQMNSLKPEDTAVYYCAAQGYSYRHTAFEYWGQGTQVTVSS | high polyreactivity |
| QVQLVESGGRLVQAGGSLRLSCAASGIFYTYDMGRYRQAPGKERELVATINSGGSTNYADSVKGRFTISRDNAKNTVYLQMNSLKPEDTAVYYCAAAEDVYSERPRYDYWGQGTQVTVSS | low polyreactivity |
| QVQLVESGGGLVQAGGSLRLSCAASGRTFSFYAMGWYRQAPGKERELVAAIRSDGGTTYYADSVKGRFTISRDNAKNTVYLQMNSLKPEDTAVYYCNTQSFYFVSYSSSRYLRYYWGQGTQVTVSS | low polyreactivity |
| QVHLVESGGGLVQAGGSLRLSCAASGSIFVHYAMGWYRQAPGKERELVATISSSGGSTYYADSVKGRFTISRDNAKNTVYLQMKSLKPEDTAVYYCAADWTLDPSYGYYADDYWGQGTQVTVSS | low polyreactivity |
| QVQLVESGGGLVQAGGSLRLSCAASGSTFNKYAMGWYRQAPGKEREFVAAITSSGGRTYYADSVKGRFTISRDNAKNTVYLQMNSLKPEDTAVYYCAARSYTYTAPIYGYWGQGTQVTVSS | high polyreactivity |
| QVQLVESGGGLVQAGGSLRLSSAASGSTFTRYGMGWYRQAPGKERELVAAITTSGSSTYYADSVKGRFTISRDNAKNTVYLQMNSLKPEDTAVYYCAADWSSWGFDYWGQGTQVTVSS | low polyreactivity |
| QVQLVESGGGLVQAGGSLRLSCAASGRIFSYYAMGWYRPAPGKERELVAAISSSGGSTYYADSVKGRFTISRDNAKNTVYLQMNSLKPEDTAVYYCRVYTRGEYYSWGQGTQVTVSS | high polyreactivity |
| QVPLVESGGGLVQAGGSLRLSCAASGSIFQLYAMGWYRQAPGKEREFVAAITRSGGRTYYADSVKGRFTISRDNAKNTVYIQMNSLKPEDTAVYYCAADWVRNVYYRGYDYWGQGPQVTVSS | high polyreactivity |
| QVQLVESGGGLVQAGGSLRLSCAASGRIFGVYAMGLYRQAPGKERELVAGITYSGGSTYYADSVKGRFTISRDNAKNTVYLQMNSLKPEDTAVYYCARYHWYYRVSKSDSWGQGTQVTVSS | high polyreactivity |
| QVQLVESGGGLVQAGGSLRLICAASGITFDDYDMGWYRQAPGKEREFVSAISFSGSSTYYADSVKGRFTISRDKAKNTVYLQMNSLKPEDTAVYYCNADYVYSGGRYFGKDYWFDYWGQGTQVTVSS | low polyreactivity |
| QVQLVESGGGLVQAGGSLRLSCAASGRIFFVNAMGWYRQAPGKERELVAAISRGGSTNYADSVKGRFTISRDNAKNTVYLQMNSLKPEDTAVFYCNADGSSYWYPVPLDGGDYWGQGTQVTVSS | low polyreactivity |
| QGQLVESGGGLVQAGGSLRLSCAASGRTFYTYAMGWYSPAAGKERELVAAMTRSGGRTYYADSVKVRFTISRDNAKNTVYLQMNSLKPEDTAVYYCGAKTFYWWADYDYWGQGTQVTVSS | high polyreactivity |
| QVQLVESGGGLVQAGGSLRLSCAASGLIFNNYAMGWYRQAPGKERELVATISRTGTSTYYADSVKGRFTISRDNAKNTVYLQMNSLKPEDTAVYYCNAVIQLFEWGWDDEYDYWGQGTQVTVSS | low polyreactivity |
| QVQLVESGGGLVQAGGSLRLSCAASGSTFAGYAMGWYRQEPGKERELVAAISGSGGTTYYADSVKGRFTISRDNAKNTVYLQMNSLKPEDNAVYYCAALRGRYYGGLGDYWGQGTQVTVSS | high polyreactivity |
| QVQLVESGGGLVQAGGSLRLSCAASGFIFAIYAMGWYRQAPGKEMELVAAITSSGGSTYYADSVKGRFTISRDNAKNTVYLQMNSLKPEDTAVYYCNKLSWRKYLGYEYWGQGTHVTVSS | high polyreactivity |
| QVQLVESGGGLVQAGGSLRLSCAASGRTFRDYVMGWYRQAPGKERELVAVISYRGSTYYADSVKGRFTISRDNAKNTVYLQMNSVKPEDTAVYYCAGRFSLEGGYYWGQGTQVTVSS | low polyreactivity |
| QVQLVESGGGLVQEGGSLRLSCAASGSTFDIYAMGWYRQAPGKERELVAAIRGRGGSTYYADSVKGRFTISRDNGKNTVYLQMNSLKPEDTAVYYCAADSYATRYYYWGQGTQVTVSS | high polyreactivity |
| QVQLVESGGGLVQAGGSLRLSCAASGFIFVPNTMGWYRQAPGKERELVAAITSVGSTNYADSVKGRFTISRDNAKNTVYLQMNSLKPEDTAVYYCPATLYYQYGGDYWGQGTQVTVSS | low polyreactivity |
| QVQLVESGGGLVQAGGSLRLSCAASGFIFLYYAMGWYRQAPGKERELVPYISRGADTKYADSVKGRFTISRDNAKNTVYLQMNSLKPEDTAVYYCATDITTFWFPYPGVELGYWGQGTQVTVAS | low polyreactivity |
| QVQRVESGGGLVQAGGSLRLSCAATGLIFSPYAMGWYRQAPGKEREFVAGITWRGGNTYYADSVKGRFTISRDNAKNTVYLQMNSLNPEDTAVYYCAAYERKFYTVSRWYKLDYWGQGTQVTVSS | high polyreactivity |
| QVQLVESGGGLVQAGGSLRLSCAASGYTFPIYAMGWYRQAPGKERELVATISSGGRTNYADSVKGRFTISRDNAKNTVYLQMKSLKPEDTAVSYCNARRLGWHALYLYDYWGQGTQVTVSS | high polyreactivity |

| Sequence | polyreactivity (PSR sort gate) |
| --- | --- |
| QVQLVESWGGLVQAGGSLRLSCAASGSTFDYNAMGWYRQAPGKERELVAAITSTGGNTYYADSVKGRFTISRDNAKNTVYLQMISMKPEDTAVYYCNKDVARYPYGKFDYWGQGTQVTVSS | low polyreactivity |
| QVQLVESGGGLVQAGGSLRLSCAASGSTLKYYTMGWYRQAPGKERELVAAISWSGGRTYYADSVKGRFTISRDNAKNTVYLQMNCLKPEDTAVYYCAKYPGYRSSGRISYEYDYWGQGTQVTVSS | high polyreactivity |
| QVQLVESGGGLVQAGGSLRLSCAASGRIFKRNAMGWYRQAPGKERELVAAISSRVGRTYYADSVKGRFTISRDNAKNTVYLQMNSLKPEDTAVYYCAADTYTYYDYDYWGQGTQVTVSS | high polyreactivity |
| QVQLVESGVGLVQAGGSLRLSCAASGRTFPSYNMGWYRQAPGKERELVAAITWTGGSTYYSDSVKGRFTISRDNAKNTVYLQMNSLKPEDTAVYYCATEEVYGQGNYWGQGTQVTVSS | low polyreactivity |
| QVQLVESGGGLVQAGGSLRLSCAASGRIFGGYAMGWYRQAPGKERELVASITARGTSTYYADTVKGRFTISRDNAKNTVYLQMNRLKPEDTAVYYCNALYRIYRNQWFISNYGYYYWGQGTQVTVSS | low polyreactivity |
| QIQLVESGGGLVQAGGILRISCAASGRTFGSNTMGWSRQAPGKERELVAAISGTGTSTYYADSVKGRFTISRDNAKNTVYLQMNILKPEDTAVFYCAAGWYKYLFQPHDYWGQGTQVTVSS | low polyreactivity |
| QVQLVESWGGLVQAGGSLRLSCAASGRTLGYNAMGWYRQAPGKERELVATISYNGGRTYYADSVKGRFTISRDNAKNTVYLQMNSLKPEDTAVYYCNTRYRWIRRSLFDYWGQGTQVTVSS | high polyreactivity |
| QVQLVESGGGLVQAGGSLRLSCEASGFTFGPYAMGWYRQAPGKEREWVAAIDDSGGNTYYADSVKGRFTISRDNAKNTVYLQRNSLKPEDTAVSYGNAFGPDYYHVYPAEDYWGQGTQVTVSS | low polyreactivity |
| QVQLVESGGGIVQAGGSLGLSCGASGRTCRKFSMGWYSQAPGNAWEVVAAISSRGGSTYYADSVKGRFTSSRDNAKNTVYLQMNSLIPEDTAVYYCATDSIPPSSEGDYWGQGTQGTVSS | high polyreactivity |
| QVQLVESGGGLVQAGGSLRLSCAASGITFVYYVMGWYRQAPGKERELVAAINAGGGSTYYADSVKGRFTISRDNAKNTVYLQMNSLKPEDTAVYYCNARVRVRLGRNWSSYYYWGQGTQVTVSS | high polyreactivity |
| QVQLVESGGGLVQAGGSLRLSCAASGRTFRNAMGWYRQEPVKEREFVATITWSGGSTYYADSVKGRFTISRDNAKNTVYLQMNSLKPEDTAVYYCAAEGRLWDWQRYDYWGQGTQVTVSS | low polyreactivity |
| QVQLVESGGGLVQAGGSLRLSCAASGRTFKKYAMGWYRQAPGKERELVAAISWSGGTTYYADSVKGRFTISRDNAKNTVYLQMNSLKPEDTAVYYCAARVSRTGHGYYYFWGQGTQVTVSS | high polyreactivity |
| QVQLVESGGGLVQAGGSLRLSCAASGRIFDYNDMGWYRQAPGTERELVAGISSGGSTYYADSVKGRFTISRDNAKNTVYLQMNSLKPEDTAVYYCAAGGRPYRGYGYWGQGTQVTVSS | high polyreactivity |
| QVQLVESGGGLVQAGGSLRLSCAASGSTFRGYAMGCYRQAPGKEREFVASISLSGGTDYADSVKGRFTISRDNAKNTVYLQMNSLKPEDTADYYCAAGYPAVSDSIEHNFWGQGTQVTVSS | low polyreactivity |
| QVQLVESGGGLVQAGGSLRLSCAASGIIFGDNAMGWYRQAPGKERELVAAIDSGGSTYYADSVKGRFTISRDNAKTTVYCPMNSLKPEDTAVYYCNAVTAFGYSYGGWDYDQYNYWGQGTQVTVSS | low polyreactivity |
| QVQLVESGGGLVQAGGSLRLSCAASGRIFYKYAMGWYRQAPGKERELVAAITTSGGSTYYADSVKGRFTISRDNAKNTVYLQMNSLKPEDTAVYYCARDLNGRFLTTGRGMDYWGQGTQVTVSS | high polyreactivity |
| QVQPVESGGGLVQAGGSLRLSCAASGIIFPYYAMGWYRQEPGKERELVAAISTGGSTYYADSVKGRFTISRDNAKNTVYLQMNSLKPEDTAVYCCAAATSYGKSEYDYWGQGTQVTVSS | high polyreactivity |
| QVQLVESGGGLVQAGGSLRLSCAASGLTFQKYAMGWYRQAPGKERELVAAISRGGDTYYADSVKGRFTISRDNAKNTVYLQMNSLKPEDTAVYYCAASNYLYRYSHYGYWGQGTQVTVSS | high polyreactivity |
| QVQLVESGGGVVQAGGSLRLSCAASGLIFSPYAMGWYRPAPGKERELVAVITRSGGRTYYADSVKGRFTISRDNAKNTVYLQMNSLKPEDTAVYYCAATPKSWSSSTRDYWGQGTQVTVSS | high polyreactivity |
| QVQLVESGGGLVQAGGSLRLSCAASGFTFRYYAMGWYRQAHGKERELVASITGGGRTYYADSVKGRFTISRDNAKNTVYLQMNSLKPEDTAVYYCATLLAYRLGSGYDSWGQGTQVTVSS | high polyreactivity |
| QVQLVESCGGLVQAGGSLRLSCAASGSISFYAMGWYRQAPGQERELVAAITTSGGRTYYADSVKGRFTISRDNAKNTVYLQMNSLKPEDTAVYYCAQQGWYYSNRDGYRWYDYWGQGTQVTVSS | high polyreactivity |

Source: the nanobody polyreactivity screen of Harvey et al. (2022)
